From publication PMC10001230, “A Role for the V0 Sector of the V-ATPase in Neuroexocytosis: Exogenous V0d Blocks Complexin and SNARE Interactions with V0c” (Cells, 2023) come the findings set out here.

The chains are these.
B1: His6-T7-HSV tagged full-length V0c-subunit (natural protein, rat, UniProt P63081 1-155, looked up)
chain: MADIKNNPEYSSFFGVMGASSAMVFSAMGAAYGTAKSGTGIAAMSVMRPELIMKSIIPVVMAGIIAIYGLVVAVLIANSLTDGITLYRSFLQLGAGLSVGLSGLAAGFAIGIVGDAGVRGTAQQPRLFVGMILILIFAEVLGLYGLIVALILSTK
notes: V-ATPase V0 sector subunit c (V0c), full length; also called HSV-V0c; 6His-V0c; source: E. coli OverExpress C43(DE3), membranes solubilized in 2% FosCholine-12, purified (Ni-NTA)
B2: Full-length V0c-L3.4s mutant (V0c with scrambled loop 3.4) (natural protein, rat, UniProt P63081 1-155, looked up)
chain: MADIKNNPEYSSFFGVMGASSAMVFSAMGAAYGTAKSGTGIAAMSVMRPELIMKSIIPVVMAGIIAIYGLVVAVLIANSLTDGITLYRSFLQLGAGLSVGLSGLAAGFAIGIVGDAGQATVQPLGRRFVGMILILIFAEVLGLYGLIVALILSTK
notes: Cloned in pET28 (EcoR1/Sal1); source: E. coli OverExpress C43(DE3), purified (Ni-NTA)
B4: Complexin1-GST (natural protein, rat, UniProt P63041 1-134, looked up)
chain: MEFVMKQALGGATKDMGKMLGGDEEKDPDAAKKEEERQEALRQAEEERKAKYAKMEAEREVMRQGIRDKYGIKKKEEREAEAQAAMEANSEGSLTRPKKAIPPGCGDEPEEEDESILDTVIKYLPGPLQDMFKK
notes: Legends call it GST-complexin although GST stands downstream of complexin in the construct; also called GST-complexin; immobilized complexin; source: E. coli BL21, purified; not shown: GST, C-terminal, kept

Common to all, as to details: both partners purified
The target in experiment [1] is T1, GST-V0d1 (rat, UniProt Q5M7T6 1-351).
T1 construct: rat V-ATPase V0 sector subunit d1 (V0d1), amplified from an adult rat brain cDNA library and inserted EcoR1/Sal1 into pGEX-5x-1; the forward primer begins at the codon after the first methionine (SFFPEL), the reverse primer ends at the stop codon; also called immobilized V0d1; source: E. coli BL21, purified (Glutathione-Sepharose)
T1 sequence (Q5M7T6 entry or part of it): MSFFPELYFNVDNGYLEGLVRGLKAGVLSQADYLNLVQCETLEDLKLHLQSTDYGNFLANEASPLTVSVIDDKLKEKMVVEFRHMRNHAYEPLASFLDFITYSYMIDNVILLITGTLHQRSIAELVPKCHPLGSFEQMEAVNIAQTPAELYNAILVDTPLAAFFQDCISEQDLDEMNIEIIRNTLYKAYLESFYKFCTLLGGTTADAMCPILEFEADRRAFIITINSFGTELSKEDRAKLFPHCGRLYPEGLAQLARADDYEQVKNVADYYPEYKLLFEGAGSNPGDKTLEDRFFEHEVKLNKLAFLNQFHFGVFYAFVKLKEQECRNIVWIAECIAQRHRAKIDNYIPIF
As to the kind of experiment: ELISA; V0c, VAMP2, t-SNARE, complexin, trimeric SNARE complex with or without complexin immobilized; GST-V0d1 or GST 50 nM; detected with anti-GST; GST binding subtracted. For orientation: An ELISA detects its analyte on a solid surface through an enzyme-linked reagent.

In experiment [2] the target is T1, GST-V0d1. As to the kind of experiment: SPR; GST-V0d1 and GST amine-coupled on consecutive flow cells; V0c (50 nM, with or without 2 µM soluble GST-V0d1), V0c L1.2s or V0c L3.4s injected; 25 °C; GST signal subtracted.
Experiment [3] has as its target B1. The experiment can be described thus: ELISA; His-tagged complexin immobilized (1 µg/well); V0c 20 nM with or without VAMP2 100 nM, overnight 4 °C in 50 mM Tris-HCl pH 7.5, 150 mM NaCl, 3% BSA, 0.1% Triton X-100; detected with anti-HSV.
Experiment [4] concerns the target B1. As to the kind of experiment: SPR; Complexin1-GST and GST amine-coupled on the chip; V0c, V0c L1.2s or V0c L3.4s 50 nM injected for 2 min; 25 °C, HBS with or without 0.2% CHAPS; GST signal subtracted. On the technique in general: In SPR one partner is held on a chip, and binding of the other changes the refractive index at the surface.
The target in experiment [5] is B2. Described as above.
In the experiment “Complexin1-GST” the target is B4. As to the kind of experiment: SPR; competition: V0c 100 nM preincubated or not with L1.2 or L3.4 peptides (10 µM) and injected on immobilized GST-complexin; 25 °C.
For experiment [6], the target named is T1, GST-V0d1. The experiment can be described thus: SPR; competition: V0c 50 nM injected over immobilized GST-V0d1 in the presence of an excess of GST or GST-complexin, or of L1.2 or L3.4 peptides; GST flow cell subtracted.

Consider B1, for which the binding result with GST-V0d1 [1] was “binds”.

Regarding B2, the binding result with GST-V0d1 [2] is “binds”.

B3: Complexin1-His (natural protein, rat, UniProt P63041 1-134, looked up)
chain: MEFVMKQALGGATKDMGKMLGGDEEKDPDAAKKEEERQEALRQAEEERKAKYAKMEAEREVMRQGIRDKYGIKKKEEREAEAQAAMEANSEGSLTRPKKAIPPGCGDEPEEEDESILDTVIKYLPGPLQDMFKK
notes: also called His-tagged complexin; source: E. coli BL21, purified
With B3, the binding result in experiment [3] is recorded as “binds”.

In the case of B4, the binding result in experiment [4] and in experiment [5] was “binds” each time.

B5: V0c L1.2 peptide (aa 35-KSGTGIAAMSVMRPELIMKS-54) (peptide)
peptide: KSGTGIAAMSVMRPELIMKS
notes: V0c cytosolic loop 1.2; printed as aa 35-54; also called loop 1.2 peptide; free L1.2 peptide; source: synthetic peptide (Genecust)
With B5, the binding result with Complexin1-GST and in the experiment with GST-V0d1 [6] was “binds” throughout.
